{
  "source": "paper PMC3903462",
  "about": "(Biochemistry, 2013)",
  "biological_target": "the molecule itself",
  "assay": "SEC-MALS",
  "data": [
    {"protein": "HsaD from Mycobacterium tuberculosis H37Rv (enzyme) MTATEELTFESTSRFAEVDVDGPLKLHYHEAGVGNDQTVVLLHGGGPGAASWTNFSRNIAVLARHFHVLAVDQPGYGHSDKRAEHGQFNRYAAMALKGLFDQLGLGRVPLVGNSLGGGTAVRFALDYPARAGRLVLMGPGGLSINLFAPDPTEGVKRLSKFSVAPTRENLEAFLRVMVYDKNLITPELVDQRFALASTPESLTATRAMGKSFAGADFEAGMMWREVYRLRQPVLLIWGREDRVNPLDGALVALKTIPRAQLHVFGQCGHWVQVEKFDEFNKLTIEFLGGGR", "values": [
      {"measurement": "stoichiometry N", "value": 4}
    ]}
  ]
}
